Laboratory results: publication PMC4132745

System: HMO1 (Saccharomyces cerevisiae)
Assay: optical tweezers (DNA stretching)
Conditions: Assay buffer, salt, pH and temperature not given in the material (protein stored in 20 mM HEPES pH 7.5, 100 mM KCl, 1 mM EDTA, 1 mM DTT, 5% glycerol)

**Q.** Which results are given for bacteriophage lambda DNA?
**A.** Kd (from contour length, omega = 18 +/- 5, n = 26 bp): 1.9 nM; Kd (from overstretching force, omega = 80 +/- 15, n = 26 bp): 2.8 nM; Kd (from persistence length, omega = 20 +/- 7, n = 26 bp): 2.1 nM
